# According to paper doi:10.1101/2020.05.01.070730 (bioRxiv, 2020):
# T1: MutS (Pseudomonas aeruginosa, UniProt Q9HY08 1-855)
# T1 sequence: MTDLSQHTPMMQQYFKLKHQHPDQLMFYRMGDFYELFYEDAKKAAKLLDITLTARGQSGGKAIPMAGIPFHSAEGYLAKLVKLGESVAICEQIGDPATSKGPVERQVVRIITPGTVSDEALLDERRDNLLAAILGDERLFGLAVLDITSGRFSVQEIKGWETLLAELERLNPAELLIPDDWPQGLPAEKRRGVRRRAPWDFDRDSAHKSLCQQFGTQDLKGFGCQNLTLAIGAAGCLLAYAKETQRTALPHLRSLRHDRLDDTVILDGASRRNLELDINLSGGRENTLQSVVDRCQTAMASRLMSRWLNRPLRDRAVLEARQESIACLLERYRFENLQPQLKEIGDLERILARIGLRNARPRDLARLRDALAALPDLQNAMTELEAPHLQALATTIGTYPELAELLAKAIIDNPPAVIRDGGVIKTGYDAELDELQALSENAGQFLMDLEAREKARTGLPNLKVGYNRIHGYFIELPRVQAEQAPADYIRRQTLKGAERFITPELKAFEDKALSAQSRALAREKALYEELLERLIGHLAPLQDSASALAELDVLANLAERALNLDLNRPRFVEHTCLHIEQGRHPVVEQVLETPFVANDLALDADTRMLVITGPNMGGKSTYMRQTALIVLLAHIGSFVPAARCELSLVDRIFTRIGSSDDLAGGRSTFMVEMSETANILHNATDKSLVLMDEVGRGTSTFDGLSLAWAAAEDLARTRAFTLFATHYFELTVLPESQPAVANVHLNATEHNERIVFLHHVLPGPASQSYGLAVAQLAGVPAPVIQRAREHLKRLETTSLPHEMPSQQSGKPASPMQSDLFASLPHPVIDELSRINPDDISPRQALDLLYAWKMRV
# T2: MutS E. coli (Escherichia coli, UniProt P23909 1-853)
# T2 sequence: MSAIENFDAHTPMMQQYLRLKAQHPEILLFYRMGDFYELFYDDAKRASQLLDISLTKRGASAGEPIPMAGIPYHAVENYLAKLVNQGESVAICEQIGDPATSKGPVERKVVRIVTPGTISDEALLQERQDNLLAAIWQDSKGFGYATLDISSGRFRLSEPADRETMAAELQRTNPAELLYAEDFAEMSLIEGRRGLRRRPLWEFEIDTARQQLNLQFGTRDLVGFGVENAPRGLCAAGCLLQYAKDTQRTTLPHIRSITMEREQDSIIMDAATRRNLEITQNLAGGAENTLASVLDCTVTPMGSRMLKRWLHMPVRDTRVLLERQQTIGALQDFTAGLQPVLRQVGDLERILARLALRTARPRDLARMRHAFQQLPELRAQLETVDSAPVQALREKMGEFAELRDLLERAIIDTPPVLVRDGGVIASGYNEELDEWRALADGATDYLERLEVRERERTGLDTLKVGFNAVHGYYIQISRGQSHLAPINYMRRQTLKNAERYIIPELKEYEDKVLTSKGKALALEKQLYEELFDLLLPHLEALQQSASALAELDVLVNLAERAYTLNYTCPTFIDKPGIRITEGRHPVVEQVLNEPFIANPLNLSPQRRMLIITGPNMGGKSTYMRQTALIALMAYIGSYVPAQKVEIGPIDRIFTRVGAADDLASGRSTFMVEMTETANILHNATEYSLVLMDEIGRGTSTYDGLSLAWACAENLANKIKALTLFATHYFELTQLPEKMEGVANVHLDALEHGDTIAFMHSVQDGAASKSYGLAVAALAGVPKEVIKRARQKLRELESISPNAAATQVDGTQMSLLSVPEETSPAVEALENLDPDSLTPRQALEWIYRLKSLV
# How the values were obtained:
# [1] = target: T1, MutS; assay: EMSA
# [2] = target: T2, MutS E. coli; assay: native PAGE shift
# [3] = target: T1, MutS; assay: SPR
Binder,Kd [1],binding result [2],Kd [3]
GT-pDNA (GT 8 nt from 3'-OH) (dsDNA) DNA 1: ATGTGAATCAGTATGGTTGCTATCTGC DNA 2: ATTTCCTTCAGCAGATAGTAACCATACTGATTCACAT,20 ± 0.1 nM,,
pDNA (AT) (dsDNA) DNA 1: ATGTGAATCAGTATGGTTACTATCTGC DNA 2: ATTTCCTTCAGCAGATAGTAACCATACTGATTCACAT,50.7 ± 2.3 nM,,
GT-dsDNA (GT 18 nt from 3' end) (dsDNA) DNA 1: ATGTGAATCAGTATGGTTGCTATCTGCTGAAGGAAAT DNA 2: ATTTCCTTCAGCAGATAGTAACCATACTGATTCACAT,35 ± 0.9 nM,binds,
dsDNA (dsDNA) DNA 1: ATGTGAATCAGTATGGTTACTATCTGCTGAAGGAAAT DNA 2: ATTTCCTTCAGCAGATAGTAACCATACTGATTCACAT,331 ± 15.9 nM,,1960 nM
